Test results published in article PMC8589032 (Journal of molecular biology, 2018).
Residue numbers refer to the chain shown, from its start. Names may count otherwise. Values belong to the binder of their own block, whether it stands above or below them.

How the values were obtained:
ubiquitin [1] = target: T1, ubiquitin (UniProt P0CG48 1-76); test: ITC
ubiquitin [2] = target: T1, ubiquitin; test: NMR titration

- Kd (ubiquitin [1]): 18.7 ± 1.6 µM
B1: REV1 UBM1-UBM2 (C958S C977A) (domain or fragment, human, UniProt Q9UBZ9-1 933-1040, looked up)
chain: PSPSQLDQSVLEALPPDLREQVEQVSAVQQAESHGDKKKEPVNGANTGILPQPVGTVLLQIPEPQESNSDAGINLIALPAFSQVDPEVFAALPAELQRELKAAYDQRQ

- binding result (ubiquitin [2]): binds
B2: REV1 UBM1-UBM2 (residues 933-1040, wild-type) (domain or fragment, human, UniProt Q9UBZ9-1 933-1040, looked up)
chain: B1 chain with S26C, A45C

- Kd (ubiquitin [1]): 14.9 ± 3 µM
Binder: ESNSDAGINLIALPAFSQVDPEVFAALPAELQRELKAAYDQRQ (domain or fragment, human, UniProt Q9UBZ9-1 998-1040, looked up) [REV1 UBM2 (residues E998 to Q1040)]
